Values belong to the binder of their own block, whether it stands above or below them.
Experiments:
[1] = biological target: T1, SEZ6 Sushi Domain 2 (amino acids 511-572) on yeast (human, UniProt Q53EL9 530-591); test: yeast display, flow cytometry;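 note: antibody binding to individual SEZ6 domains displayed on yeast, measured by flow cytometry, antibody at 50 nM purified or hybridoma supernatant diluted 1:2, 90 min on ice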
T1 construct: yeast display
T1 sequence: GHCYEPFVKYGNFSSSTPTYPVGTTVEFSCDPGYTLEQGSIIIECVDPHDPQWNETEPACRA

[2] = biological target: T2, human SEZ6 on HEK-293T cells (human, UniProt Q53EL9 20-994); test: immunohistochemistry
T2 construct: also called h293T-HuSEZ6

[3] = biological target: T3, SEZ6 Sushi Domain 4 (amino acids 750-813) on yeast (human, UniProt Q53EL9 769-832); test: yeast display, flow cytometry;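 note: antibody binding to individual SEZ6 domains displayed on yeast, measured by flow cytometry, antibody at 50 nM purified or hybridoma supernatant diluted 1:2, 90 min on ice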
T3 construct: yeast display

[4] = biological target: T4, hSEZ6-ECD-His (human, UniProt Q53EL9 20-925); test: immunohistochemistry, signal competed by soluble antigen
T4 construct: the whole entry is named; also called recombinant SEZ6-His; human recombinant SEZ6-His

[5] = biological target: T5, SEZ6 Sushi Domain 5 (amino acids 817-878) on yeast (human, UniProt Q53EL9 836-897); test: yeast display, flow cytometry;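 note: antibody binding to individual SEZ6 domains displayed on yeast, measured by flow cytometry, antibody at 50 nM purified or hybridoma supernatant diluted 1:2, 90 min on ice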
T5 construct: yeast display

[6] = biological target: T6, SEZ6 Sushi Domain 3 (amino acids 690-748) on yeast (human, UniProt Q53EL9 709-767); test: yeast display, flow cytometry;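 note: antibody binding to individual SEZ6 domains displayed on yeast, measured by flow cytometry, antibody at 50 nM purified or hybridoma supernatant diluted 1:2, 90 min on ice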
T6 construct: yeast display

binding result [1]: binds
B1: SC17.90 (antibody, V domains shown)
VL: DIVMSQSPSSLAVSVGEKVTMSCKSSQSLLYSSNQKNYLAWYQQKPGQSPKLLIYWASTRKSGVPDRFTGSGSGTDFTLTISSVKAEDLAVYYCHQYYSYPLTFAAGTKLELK
VH: QVQLQQPGSVLVRPGASVKLSCKASGYTFTSYWMHWVKQRPGQGLEWIGEIHPNNGSTNYNEKFKGKATLTVDTSSSTAYVDLSSLTSEDSAVYYCARWTLFTYWGQGTLVTVSA
notes: murine mAb; also called SC17.155 (duplicate)

binding result [2]: binds
binding result [3]: binds
binding result [4]: binds
B2: SC17.140 (antibody, V domains shown)
VH: EVQLQQSGPELMKPGASVKMSCKASGYTFTDYNMHWVKQNQGKSLEWIGEINPNTGGTGYNQKFKGKATLTVDKFSSTAFIELRSLTSEDSAIYYCTRGGYDHYWYFDVWGAGTTVTVSS
VL: QIVLTQSPAIMSASPGEKVTMTCSASSSVSYMHWYQQKSGTSPKRWIYDTSKLASGVPARFSGSGSGTSYSLTISSMEAEDAATYYCQQWSSTPPTFGSGTKLEIK
notes: murine mAb

binding result [5]: binds
B3: SC17.74 (antibody, V domains shown)
VH: QVQLKQSGPGLVAPSQSLSITCTVSGFSLTSYGVDWVRQSPGKGLEWLGVIWGGGSTNYNSALKSRLSITKDNSKSQVFLKMNSLQTDDTAMYYCASGDYDGSLWFAYWGQGTLVTVSA
VL: DIQMTQSSSYLSVSLGGRVTITCKASDHINNWLAWYQQKPGNAPRLLISGATSLETGVPSRFSGSGSGKDYTLSITSLQTEDVATYYCQQYWSTPPTFGAGTKLELK
notes: murine mAb

binding result [6]: binds
B4: SC17.95 (antibody, V domains shown)
VH: EVELQQSGPELVKPGASVKISCKTSGNTYTEYTMQWVKLSHGKSLEWIGGINPNNGITSYNQKFKGKATLTVDKSSSTAYMELRSLKSEDSAVYYCARAGLGNYVWAMDYWGQGASVTVSS
VL: DIQMTQTTSSLSASLGDRVTISCSASQGINNYLNWYQQKPDGTVTLLIYYTSSLHSGVPSRFSGSGSGTDYSLTISNLEPEDIATYYCQQYSKLPWTFGGGTKLEIK
notes: murine mAb

— patent US20190022241A1 (AbbVie / Abbott, published 2019)
